Experimental findings from patent US20080187554A1, “Process for producing stable HIV Th-CTL peptides” (Wyeth, priority 2005, published 2008) are described below.

The data set in a line: Stability by RP-HPLC for peptide quantification. The class given is physicochemical. The note with it: lyophilized, 40° C., six-months time point, all three concentrations (FIGS. 6-8). The source says: The stability was also monitored for pre-lyophilization formulations. Stability assays basically include appearance (visual inspection), pH, FLS, peptide fluorescence, and RP-HPLC for peptide quantification.

Consider “H-Lys-Gln-Ile-Ile-Asn-Met-Trp-Gln-Glu-Val-Gly-Lys-Ala-Met-Tyr-Ala-Lys-Ala-Phe-Ser-Pro-Glu-Val-Ile-Pro-Met-Phe-OH (H-KQIINMWQEVGKAMYAKAFSPEVIPMF-OH; also: acetate salt) [Peptide A, HIV Th/CTL peptide]”, for which the “potency change at accelerated temperature” value is “potency decreases”.
